Assay results from the RNAGym collection of RNA variant scans (doi:10.1073/pnas.2313332121).

B1: TPR t1 (parent)
chain: GACCAAUCUGCCCUCAGAGCUCGAGAACAUCUUCGGAUGCAGAGGAGGCAGGCUUCGGUGGCGCGAUAGCGCCAACGUCCUCAACCUCCAAUGCAUCCCACCACAUGAUGAUGCCUGAAGAGCCUUGGUUUUUUG

Variants of: B1
Experiment: polymerase ribozyme fitness, log enrichment relative to wild type (log ratio); higher = more active; in vitro selection for triplet polymerase activity
Procedure, shortened: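 For each subunit of a heterodimeric triplet polymerase ribozyme, a mutant library was built by PCR and transcribed, then taken through a single in vitro selection round in triplicate. Selection involved annealing to a biotinylated primer, the partner subunit and triplets, incubation frozen at −7 °C, gel excision of extended constructs, capture on streptavidin beads and RT-PCR. Genotypes were retained after Illumina sequencing of inputs and outputs only with ≥10 input reads and ≥1 read in each output. Fitness is defined as the logarithm of a genotype's enrichment relative to wild-type enrichment, using inverse-variance-weighted averages across replicates, with the logarithm taken to base 2.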

Point of comparison: G60A C82A U106A G120A, “polymerase ribozyme fitness (log ratio)” value 0.0586. Against it:
- U59G C89A A121G — higher, 0.508
- U59G C97U — lower, -1.6
- U59G C101U U131G U133A — lower, -0.675
- U59G G71A — lower, -3.25
- U59G G122A — lower, -1.35
- U59G U81G U96G — lower, -3.9
- U59G U92A — lower, -3.4
- U59G U92G G110A U133C — lower, -4.4
- G60A A83C — lower, -0.195
- G60A A84C — within 0.2 log units, -0.0134
- G60A A84U U87A G113U G122A — lower, -5.92
- G60A A90C — lower, -0.936
- G60A A91U — lower, -1.09
- G60A A100C C104U C123A — lower, -0.726
- G60A A100U U129A — lower, -2
- G60A A103C A111C — lower, -4.91
- G60A A105U — lower, -1.64
- G60A A108G G117A — lower, -3.74
- G60A A118U U126A — lower, -2.3
- G60A C62U C79G U106G — lower, -5.51
- G60A C62U U112G — higher, 0.38
- G60A C64G G69U U132A — lower, -0.296
- G60A C64U — lower, -2.43
- G60A C72G C79A U87C U129C — lower, -3.89
- G60A C79U U130A — within 0.2 log units, 0.0156
- G60A C82U — lower, -0.523
- G60A C85A — lower, -1.07
- G60A C88G — lower, -1.54
- G60A C88U — lower, -0.511
- G60A C89A U116G — lower, -4.84
- G60A C89U — lower, -0.18
- G60A C97G G117C — lower, -6.67
- G60A C99U — lower, -2.87
- G60A C101G — lower, -1.57
- G60A C102A G120C U132C — lower, -1.03
- G60A C114A — lower, -1.45
- G60A C114U — lower, -1.78
- G60A C123G — higher, 1.63
- G60A C124G — higher, 1.59
- G60A G63A C114U — lower, -4.85
- G60A G63U — lower, -3.96
- G60A G93A C99U — lower, -5.15
- G60A G110C — lower, -3.08
- G60A G113C G135U — lower, -5.16
- G60A G117C A121U — lower, -2.7
- G60A G122A — lower, -0.483
- G60A G135A — lower, -0.733
- G60A G135U — lower, -0.711
- G60A U78A G107C A111U — lower, -5.18
- G60A U78A U92C — lower, -1.57
- G60A U92A — lower, -3.24
- G60A U92A C104U U133A — lower, -2.74
- G60A U116C A118C — lower, -3.05
- G60A U116G — lower, -2.22
- G60A U125A — lower, -0.369
- G60A U133A — lower, -0.249
- G60C A74C — lower, -4.67
- G60C A90C C97U G117C — lower, -6.07
- G60C A95C — lower, -1.25
- G60C A111U G128U U133A — lower, -6.08
- G60C A121C U130A — within 0.2 log units, 0.0713
- G60C A121G — higher, 1.05
- G60C C72U — lower, -0.882
- G60C C79A C88G — lower, -2.51
- G60C C80U — lower, -4.1
- G60C C82A — lower, -0.574
- G60C C82G — lower, -0.49
- G60C C88U G117A — lower, -1.68
- G60C C102U — lower, -2.87
- G60C C102U G128A — lower, -4.97
- G60C C114A — lower, -1.83
- G60C C114A C115G G122C U133C — lower, -4.6
- G60C C123A — within 0.2 log units, -0.064
- G60C G61A U96A — lower, -2.15
- G60C G69A — lower, -4.01
- G60C G77A — lower, -1.47
- G60C G110U — lower, -1.71
- G60C G110U U125G — lower, -2.79
- G60C G120U — higher, 0.528
- G60C U81A A83C — lower, -3.92
- G60C U92G — lower, -3.59
- G60C U96C C104U G117A — lower, -2.83
- G60C U130A U133A — lower, -1.59
